Reference: paper PMC3992947

Assays:
[1] = molecular target: Mg-ATP-actin (actin filament barbed ends) (UniProt P68135); experiment: TIRF microscopy of single actin filaments; Oregon-green-labeled actin with Drosophila profilin and quantum-dot-clustered biotin-SNAP protein, flow cell at 23°C; barbed end residence time from a single exponential fit
GST-EnaEVH1 (Drosophila) = experiment: pull-down; purified proteins; DiaFH1-Cterm and glutathione-Sepharose beads constant, increasing GST-EVH1, 20 min at 25°; supernatants by SDS-PAGE, bound fraction fit to a quadratic equation

Q: With “QD-biotin-SNAP-EnaΔLinker (natural protein)” as the substance, how does the mean barbed end residence time [1] read?
A: 95.2 s

Q: With GST-EnaEVH1 (domain or fragment) as the substance, how does the concentration of barbed ends nucleated by 10 nM DiaFH1FH2 (from pyrene assays without profilin), 0 to 5.8 μM GST-EnaEVH1 (DiaFH1FH2 (Drosophila)) read?
A: 0.27 nM

Q: Which Kd (GST-EnaEVH1 (Drosophila)) does the source give for “DiaFH1-carboxyl-terminus (Cterm) (domain or fragment)” here?
A: 13.3 µM
